Four molecules from patent US20240228562A1 (Pieris, published 2024) can be followed below.

The target in test [1] is T1, recombinant human CTGF protein (R&D Systems, SEQ ID NO: 79) (human, UniProt P29279 27-349).
T1 construct: Bought; also called human CTGF/CNN2; huCTGF
T1 sequence: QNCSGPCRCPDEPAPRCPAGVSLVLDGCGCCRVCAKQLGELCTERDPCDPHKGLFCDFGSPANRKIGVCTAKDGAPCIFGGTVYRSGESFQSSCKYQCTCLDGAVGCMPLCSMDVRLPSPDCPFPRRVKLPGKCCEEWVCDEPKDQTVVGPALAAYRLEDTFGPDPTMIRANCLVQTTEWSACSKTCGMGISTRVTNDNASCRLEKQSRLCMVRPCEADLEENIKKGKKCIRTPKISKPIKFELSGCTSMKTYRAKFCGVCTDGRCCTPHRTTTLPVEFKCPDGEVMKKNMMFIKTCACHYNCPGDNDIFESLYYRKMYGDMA
Description: HTRF, 1 nM biotinylated human CTGF. As for the experimental part:
Binding of some fusion proteins was tested by a Homogeneous Time Resolved Fluorescence (HTRF assay). In detail, 1 nM of biotinylated human CTGF (R&D Systems) was incubated for 1 h with a titration of some lipocalins starting at 5 nM in 384 Flat Bottom White Polystyrol microtiter plate (Greiner). Samples were diluted in PBS containing 0.1% Tween 20 and 2% BSA. As donor, Streptavidin-Terbium at a concentration of 0,006 μg/mL was used, the acceptor was 0.2 μg/mL anti-His-d2 (both CisBio). After another 1 h of incubation, the fluorescence intensity of the donor and acceptor on the plate was read using a fluorescence microplate reader M1000 (Tecan) with the standard settings recommended by CisBio. The calculated ratio of signals was used for the curve fitting performed in GraphPad Prism 7 software.
In general terms: Time-resolved FRET reads energy transfer from a long-lived donor to a nearby acceptor.

For test [2], the target named is T1, recombinant human CTGF protein (R&D …). Nature of the test: ELISA, coated human CTGF. As for the experimental part:
(§1) Binding of fusion proteins was tested by an ELISA assay. In detail, a 384-well plate suitable for fluorescence measurements (Greiner FLUOTRAC™ 600, black flat bottom, high-binding) was coated with 20 μl of human CTGF (R&D Systems) at a concentration of 1 μg/ml in PBS over night at 4° C. After washing with PBS with 0.05% Tween 20, wells were blocked with 100 μl blocking buffer containing 0.1% Tween 20 and 2% BSA (PBS-T/BSA) for 1 h at room temperature. 20 μl of serially diluted muteins were incubated in PBS-T/BSA for 1 h at room temperature (RT).
The residual supernatants were discarded and 20 μl HRP-labeled anti-NGAL or anti-His-Tag antibody was added at a predetermined optimal concentration in PBS-T/BSA and incubated for 1 h at RT. After washing, 20 μl fluorogenic HRP substrate (QuantaBlu, Thermo) was added to each well, and the reaction was allowed to proceed for 2 to 60 minutes. The fluorescence intensity of every well on the plate was read using a fluorescence microplate reader (Tecan). Curve fitting was performed using GraphPad Prism 7 or 8 software.
In general terms: An ELISA detects its analyte on a solid surface through an enzyme-linked reagent.

For a further test, the target named is T2, huWISP-2 (human, UniProt O76076 24-250, limits assumed).
T2 construct: also called human WISP-2 (CCN5)
T2 sequence (looked up): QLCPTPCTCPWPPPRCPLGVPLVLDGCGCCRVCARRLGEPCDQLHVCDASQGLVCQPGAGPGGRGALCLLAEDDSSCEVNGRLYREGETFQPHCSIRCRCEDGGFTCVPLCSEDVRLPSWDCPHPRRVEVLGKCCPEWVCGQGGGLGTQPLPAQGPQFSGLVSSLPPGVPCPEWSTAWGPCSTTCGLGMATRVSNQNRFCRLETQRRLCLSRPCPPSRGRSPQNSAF
Nature of the test: ELISA, coated CCN protein. As to the method: as §1, with “muteins to closely related” for “fusion”, “proteins of CTGF” for “proteins”, “or the other members of the CCN protein family” for “(R&D Systems)”, “muteins starting at 1000 nM” for “muteins”
(§2) The residual supernatants were discarded and 20 μl HRP-labeled anti-NGAL or anti-Strep-Tag antibody was added at a predetermined optimal concentration in PBS-T/BSA and incubated for 1 h at RT. After washing, 20 μl fluorogenic HRP substrate (QuantaBlu, Thermo) was added to each well, and the reaction was allowed to proceed for 2 to 60 minutes. The fluorescence intensity of every well on the plate was read using a fluorescence microplate reader (Tecan). When the signal for human CTGF approached saturation, the cross reactivity to the other proteins was assessed.

In a further test the target is T3, huWISP-3 (human, UniProt O95389 24-354, limits assumed).
T3 construct: also called human WISP-3 (CCN6)
T3 sequence (looked up): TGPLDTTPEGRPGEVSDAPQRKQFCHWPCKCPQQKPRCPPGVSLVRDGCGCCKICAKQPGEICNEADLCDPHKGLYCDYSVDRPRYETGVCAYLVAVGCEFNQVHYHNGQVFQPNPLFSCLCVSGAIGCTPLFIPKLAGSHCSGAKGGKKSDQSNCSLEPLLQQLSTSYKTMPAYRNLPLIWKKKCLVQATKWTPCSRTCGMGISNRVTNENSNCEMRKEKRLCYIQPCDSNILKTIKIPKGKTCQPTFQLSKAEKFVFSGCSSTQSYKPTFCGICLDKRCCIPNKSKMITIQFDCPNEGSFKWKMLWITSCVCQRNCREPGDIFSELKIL
Nature of the test: ELISA, coated CCN protein. As for the experimental part:
as §1, with “muteins to closely related” for “fusion”, “proteins of CTGF” for “proteins”, “or the other members of the CCN protein family” for “(R&D Systems)”, “muteins starting at 1000 nM” for “muteins”
as §2

The target of a further test is T4, huNOV (human, UniProt P48745 32-357, limits assumed).
T4 construct: also called human NOV (CCN3)
T4 sequence (looked up): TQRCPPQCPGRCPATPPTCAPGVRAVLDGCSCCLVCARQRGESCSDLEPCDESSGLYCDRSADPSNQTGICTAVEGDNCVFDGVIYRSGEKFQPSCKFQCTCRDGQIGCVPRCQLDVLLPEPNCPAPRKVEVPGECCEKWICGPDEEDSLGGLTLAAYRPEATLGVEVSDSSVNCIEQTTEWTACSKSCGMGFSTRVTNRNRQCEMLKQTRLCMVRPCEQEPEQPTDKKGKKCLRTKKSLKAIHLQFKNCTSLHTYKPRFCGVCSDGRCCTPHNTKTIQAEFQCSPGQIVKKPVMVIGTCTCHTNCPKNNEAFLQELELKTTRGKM
Description: ELISA, coated CCN protein. As for the experimental part:
as §1, with “muteins to closely related” for “fusion”, “proteins of CTGF” for “proteins”, “or the other members of the CCN protein family” for “(R&D Systems)”, “muteins starting at 1000 nM” for “muteins”
as §2

In a further test the target is T5, huWISP-1 (human, UniProt O95388 23-367, limits assumed).
T5 construct: also called human WISP-1 (CCN4)
T5 sequence (looked up): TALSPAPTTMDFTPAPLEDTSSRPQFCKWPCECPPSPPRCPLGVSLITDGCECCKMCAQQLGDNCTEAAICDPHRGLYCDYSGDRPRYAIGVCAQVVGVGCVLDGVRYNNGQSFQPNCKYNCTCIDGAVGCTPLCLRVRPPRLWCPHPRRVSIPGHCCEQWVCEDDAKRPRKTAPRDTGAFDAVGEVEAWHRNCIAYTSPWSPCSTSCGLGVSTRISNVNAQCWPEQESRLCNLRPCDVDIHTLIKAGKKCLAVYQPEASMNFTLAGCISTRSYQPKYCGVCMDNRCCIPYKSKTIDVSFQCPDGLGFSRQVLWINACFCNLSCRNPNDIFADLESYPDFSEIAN
Description: ELISA, coated CCN protein. As for the experimental part:
as §1, with “muteins to closely related” for “fusion”, “proteins of CTGF” for “proteins”, “or the other members of the CCN protein family” for “(R&D Systems)”, “muteins starting at 1000 nM” for “muteins”
as §2

The target of another test is T6, huCYR61 (human, UniProt O00622 25-381, limits assumed).
T6 construct: also called human CYR61 (CCN1)
T6 sequence (looked up): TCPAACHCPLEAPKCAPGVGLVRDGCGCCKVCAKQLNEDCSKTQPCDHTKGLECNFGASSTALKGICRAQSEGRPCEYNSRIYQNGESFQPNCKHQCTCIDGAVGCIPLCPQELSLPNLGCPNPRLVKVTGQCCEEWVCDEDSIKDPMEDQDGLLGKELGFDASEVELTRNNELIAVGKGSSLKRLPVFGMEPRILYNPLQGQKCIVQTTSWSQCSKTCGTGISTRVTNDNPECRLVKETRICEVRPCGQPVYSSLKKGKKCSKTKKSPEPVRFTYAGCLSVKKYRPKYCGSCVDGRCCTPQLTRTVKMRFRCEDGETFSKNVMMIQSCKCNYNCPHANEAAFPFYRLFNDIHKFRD
Nature of the test: ELISA, coated CCN protein. As for the experimental part:
as §1, with “muteins to closely related” for “fusion”, “proteins of CTGF” for “proteins”, “or the other members of the CCN protein family” for “(R&D Systems)”, “muteins starting at 1000 nM” for “muteins”
as §2

Test [3] concerns the target T7, recombinant human CTGF-Fc protein (Creative Biomart) (human).
T7 construct: Bought; also called human CTGF with a human IgG1 Fc Tag
Nature of the test: SPR (Biacore); B = binding without determination of kinetics constants. As to the method: The binding of exemplary lipocalin muteins to human (Creative Biomart), cynomolgus, rat (R&D Systems) and mouse CTGF (Abbexa) was determined by SPR using a Biacore instrument (Cytiva, formerly GE Healthcare). Some targets were fused to a human IgG1 Fc tag, and captured via the anti-human IgG antibody kit, others were directly immobilized.
For some measurements, human CTGF with a human IgG1 Fc Tag or rat or murine CTGF without a tag were directly immobilized to a CM5 Chip. The carboxyl groups on the chip were activated using 1-ethyl-3-(3-dimethylaminopropyl)-carbodiimide (EDC) and N-hydroxysuccinimide (NHS). […] Residual non-reacted NHS-esters were blocked by passing a solution of 1 M ethanolamine across the surface. The reference channel was activated/deactivated. For the capture setting, targets with an IgG Fc Tag at 0.25-2.5 μg/mL in HBS-EP+ buffer were captured by the anti-human IgG-Fc antibody at the chip surface for 180 s at a flow rate of 10 μL/min.
The binding assay was carried out with a contact time of 180 s, a dissociation time of 900-3600 s and a flow rate of 30 μL/min. All measurements were performed at 25° C. […] For the directly immobilized targets, the same regeneration conditions were used. Prior to the protein measurements, three startup cycles were performed for conditioning purposes.
A general note: SPR reads the build-up and loss of mass on a sensor chip optically.

B1: fusion protein of SEQ ID NO: 74 (designed binder)
chain: QDSTSDLIPAPPLSKVPLQQNFQDNQFQGKWYVVGLAGNAILREDKQPAKMFATIYELKEDKSYDVTSVRFEAKSCKYTIKTFVPGSQPGEFTAGYIKSAPGQTSTLVRVVSTNYNQHAMVFFKHVTQNREIFVITLYGRTKELTSELKENFIRFSKSLGLPENHIVFPVPIDQCIDGGGGGSGGGGSGGGGSQDSTSDLIPAPPLSKVPLQQNFQDNQFQGKWYVVGWAGNVKLREDKQPQKMSATIYELKEDKSYDVTEVVFEQKKCHYIIKTFVPGSQPGEFTAGDIKSPPGYTSSLVRVVSTNYNQHAMVFFKKVSQNREFFWITLYGRTKELTSELKENFIRFSKSLGLPENHIVFPVPIDQCIDG
notes: not shown: C-terminal His-tag
Take B1: the values for the EC50 in test [1] and in test [2] were 0.59 nM and 0.26 nM, respectively. The binding result with huWISP-2, with huWISP-3, with huNOV, with huWISP-1 and in the test with huCYR61 was “no binding (tested: dilutions starting at 1000 nM)” throughout.

B2: fusion protein of SEQ ID NO: 76 (designed binder)
chain: QDSTSDLIPAPPLSKVPLQQNFQDNQFQGKWYVVGLAGNAILREDKQPAKMFATIYELKEDKSYDVTSVRFEAKSCKYTIKTFVPGSQPGEFTAGYIKSAPGQTSTLVRVVSTNYNQHAMVFFKHVTQNREIFVITLYGRTKELTSELKENFIRFSKSLGLPENHIVFPVPIDQCIDGGGGGSGGGGSGGGGSQDSTSDLIPAPPLSKVPLQQNFQDNQFQGKWYVVGWAGNVKLREDKQPLKMSATIYELKEDKSYDVTEVVFEQKKCHYIIKTFVPGSQPGEFTAGDIKSPPGYTSSLVRVVSTNYNQHAMVFFKKVSQNREFFWITLYGRTKELTSELKENFIRFSKSLGLPENHIVFPVPIDQCIDG
notes: not shown: C-terminal His-tag
As for B2, the EC50 was 0.62 nM in test [1] and 0.24 nM in test [2]. Further, the binding result in the test with huWISP-2, in the test with huWISP-3, in the test with huNOV, with huWISP-1 and with huCYR61 was “no binding (tested: dilutions starting at 1000 nM)” throughout.

B3: lipocalin mutein of SEQ ID NO: 17 (designed binder)
chain: QDSTSDLIPAPPLSKVPLQQNFQDNQFQGKWYVVGLAGNAILRTDKQPAKMFATIYELKEDKSYDVTSVRFEAKSCVYTSKTFVPGSQPGEFTAGNIKSAPGQTSTLVRVVSTNYNQHAMVFFKHVSQNREFFVITLYGRTKELTSELKENFIRFSKSLGLPENHIVFPVPIDQCIDG
notes: also called hNGAL mutein; not shown: C-terminal His-tag
Take B3: the binding result in test [3] is listed as “binds”.

B4: lipocalin mutein of SEQ ID NO: 20 (designed binder)
chain: QDSTSDLIPAPPLSKVPLQQNFQDNQFQGKWYVVGLAGNAILREDKQPAKMFATIYELKEDKSYDVTSVRFEAKSCSYTIKTFVPGSQPGEFTAGNIKSAPGQTSTLVRVVSTNYNQHAMVFAKAVQLNREHFFITLYGRTKELTSELKENFIRFSKSLGLPENHIVFPVPIDQCIDG
notes: as for B3
Turning to B4, the binding result in test [3] is on record as “binds”.

A word on the EC50: it is the concentration giving half of the maximal effect.
